Measurements reported in the domain aggregation screens of Martell et al. (2025).

Test: soluble fraction after stress (log2 fold change); higher = more stays soluble; pooled small domains, quantitative proteomics
Conditions: stress: 50 degC
Summary of the method: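 The stress applied to every library was 50°C. These custom libraries of small protein domains were pooled and measured at high throughput with quantitative proteomics as the read-out. Aggregation propensity is expressed as the base-two logarithm of the fold change in how much of each protein remains soluble. The higher the value, the more of that protein stays in solution.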

Compared with “HMNRETAISIYRILHILEEPYKEVFTLRTLGDLSYREIADIFGKQENWARVTYHRAKLKIREALVS”, “HMNRIFQERVVPAELDTLRADKVAASLFSDFSRNELAHWIKMGDLSINGGVKKAKDKLFEGDVLILDVEIV” is higher in “soluble fraction (log2)” value: -2 for the first, -0.798 for the second.

“HMNRKILVLLAGKEQITDNVSVMQSIHRYAFINTATINKAQHEILIEKEEIRQEALTLIHEFLK” and “HMNRKLKAKATREKIYKSAEKLFSQNDYNKVSVDAIVEAAGVAKGSFYVHFASKDALIAMLINDH” are within 0.2 log units of each other in “soluble fraction (log2)” value: -0.0593 for the first, -0.179 for the second.

Compared with “HMNRMKLLREQHNLSQTDLAKILNISRQSYNFYENEKRDPDTTMLIRIADFFNVSLDYLLGRTNN”, “HMNRPYVELFSGLGQEEAQQIVQKLQEDEVDYKFSGDSTILVKEDVVDQTKATLVQEGYPKS” is higher in “soluble fraction (log2)” value: -1.66 for the first, 0.0181 for the second.

Going from “HMNSEEINDVRKAVDELPTHLREILLLNYFQQMSYVQISDSLEIPLGTVKSRLHAAVAAFRNAWQSSQEE” to “HMNSEELFLRRIAQELIDQHGKDLHRIIVVLPSNRSKVFLKKFLFEILGSAFLTPQLMLLPQFVKSIV”, the “soluble fraction (log2)” value rises from -0.617 to -0.282.

Going from “HMNSFGWESFVGEKGVTDTDLRPSGWIVIKDKRLFALTEGTFIEKGVSVEILSVEGNRIVVREIS” to “HMNSHKIIDRLNQMITEKDLSEEMPAITEAFKNNERSAEDLKKYVAENLSKKLNAEEREKFVSLILQYRN”, the “soluble fraction (log2)” value rises from -0.249 to 0.039.

Going from “HMNSILFAITKEGGVVYGGKPVGVNGVRPLVRRLLQSEEMPVILQVDEKADAGLVIRVIDESKLGGASKV” to “HMNSIQEQIEKYVYSLAPVTIERYESLKNGDIEDIEFEKLRKSISSKIINEKIDNKKQVAILSHLKKMYSD”, the “soluble fraction (log2)” value rises from -0.269 to 0.0107.

First: HMNSKIIVESIIKSKNGIAKVADLVEGGVSRQSIKKMYADGYIKRISRGYYTLTSEPVSSDEQVISS
Second: HMNSKMTYSELITSMENKEVESVKISSSGDVASVKLKNSKTEKEVKIPSLDSFMTYTEQYLKTGEITLEE
The “soluble fraction (log2)” value of the first is lower: -0.333 for the first, 0.175 for the second.

“HMNSKMTYSELVTNITNKEVESIKISSTGSTASVKLKNSKSEKEVNIPSLDSFMSYTEEYLKTGDFTLDEE” and “HMNSLKNKNNLIALVGASNDKNKYGNKILLDLVSKGHNVVPINPKEDTVAGLKSYNNVSELSEKPSI” are within 0.2 log units of each other in “soluble fraction (log2)” value: -0.144 for the first, -0.211 for the second.

“HMNSLPFSNFMNEVEAGRVVEVKIQGNNISGVLANGKTFSTYSPNYPELVEKLSSNGVSIVATPQ” and “HMNSRTLAYSDFIRKVDKGEVSAVVIDGEQVQVQTKDGQTFVTIQPQSEQMNDKLVEQLIAKDISVKAERQ” are within 0.2 log units of each other in “soluble fraction (log2)” value: 0.153 for the first, 0.158 for the second.

Compared with “HMNSSLFLARQVHALRKKAGLTLQQLSRKSDVSVSTLSKIEKGQLSPTYEKIVSLARGLDVPIAALFHE”, “HMNSSTVDLAKEFLIDLLSSVEKMPASEVQEEAKNAGYSVASIRRAKDNLNIKPFKDGSAWYWKLPSIFK” is higher in “soluble fraction (log2)” value: -0.976 for the first, -0.114 for the second.

Going from “HMNSSTYIVTFKVDGEEDIVETYQWGDRIIVPEVEAKDDYVFIGWDAQIPEFMPERNLEFTAI” to “HMNSTNYQVIITANGGLNIRAGASTAYARIGGYAKGTVVTILAESNGFGKTDKGWISLNYTSKDLD”, the “soluble fraction (log2)” value falls from -1.14 to -3.07.

“HMNTAALSLQRRNEIKKWLLEEKTLTVAALSNRFNVTYETIRRDLEILEKEGFLKKVYGGAALNERV” and “HMNTAIDGLIEKVGMFAMEKKAISVDQVKENFSINGEQAESVIKQLETIGVLGKKNEDGTHTVM” are within 0.2 log units of each other in “soluble fraction (log2)” value: -0.0358 for the first, 0.0766 for the second.

“HMNTDALIGKTGYVTEIVGERHGRIQFSGGEWSARTEGVSIPVGAEVRVDRIDGATAVVSAV” and “HMNTDVEKQKVFTALFDDYFRRNSMTSLEKQLFLTALKTNFQNAQKTVAKDHPYYATYSLIISAIENYR” are within 0.2 log units of each other in “soluble fraction (log2)” value: 0.115 for the first, 0.145 for the second.

Going from “HMNTEEKILEKEFLMLYSELGLQPKNIYELMENTGLKYEKLVEMLLQLQLKGLVEQPSYNYYSRL” to “HMNTEEVGSYLKKLRLEHSFTQKELAGKLYITHQAVSNWEKGKALPDIGILSQLGDIYGISIDNLLLK”, the “soluble fraction (log2)” value falls from -1.02 to -1.79.

Compared with “HMNTEKRVFAGVENTRLDHFLVEQFPEFSRTFIQQMIKSANVIVNGNIEKASYKLREGDTIMTRPM”, “HMNTELFTKNLFNKLEVLLGEKNWKSKTAQLLNISSDAFYKKIRNESQLNLHELLLIKDTFKISIDALLDE” is lower in “soluble fraction (log2)” value: -0.253 for the first, -1.24 for the second.

First: HMNTETAVTKAIDQIQVMMDLRNRSVSFTRDQETGTDIIKVIDDNTGDTIRQMPSEELLTFMKNLTQ
Second: HMNTFKNIFIQEGDLFNLKKNDNQIIFAKEGILINENKKIFRLLNGKIISTNNNRLIGFEFDKIDYNLSN
The “soluble fraction (log2)” value of the first is lower: 0.147 for the first, 0.489 for the second.

Going from “HMNTGIPHQEVIKKLYSFAEGGDWKGLKEELNRIKEYTLFYNSVKELADSFEINRLIEKLKTYIF” to “HMNTGLSEREHEIAQLVLQGRTYAEIGAELFISPRTAEHHIGQIRRRLAATSRSDLLAKLRVAMNTTEGAG”, the “soluble fraction (log2)” value falls from 0.0146 to -1.27.

Going from “HMNTISYTELIKQIDEGNVEKVEMTVGSTSVKVKLQGQEEEKKAIVPNTQAFVELIQEKTLEGNQIDLKQN” to “HMNTLSPVRILAILDGRSSMAEWQLAEELGVSIDNLSEILNKMSTDGQIRLVPSEDGRMVVP”, the “soluble fraction (log2)” value rises from -0.0333 to 0.265.

Going from “HMNTPALRQRTQDVPALLIHFAKYFATKGQTPISFAPDFLEALKDYPWPGNVRELRNLVESMVV” to “HMNTPHLTPREREVLKGIVDGLINKEIAARMGVSVATVITHRNNLTEKLGTRSVSALTIFAVMHGIVR”, the “soluble fraction (log2)” value falls from -0.0746 to -2.49.

“HMNTPNYDVLYRGLADADAGQIMEALQKSNIPFKVDSHSGVLLVPADQVHEARLKLASQGLPRG” and “HMNTPTLLLYGGKDHSVPEAGIRHLRAHLSANDRGEYRFYPNAPHLLLQSRQWQQVSQDISQWLAMT” are within 0.2 log units of each other in “soluble fraction (log2)” value: 0.0262 for the first, 0.141 for the second.

Going from “HMNTRWDDAAQTWLRKVIEQQPVLVQISAAKRLRDQAEQRAREAGEEVVTEQHVKRAGLELGFGEP” to “HMNTSITVPSLKGLSQEAATLKMERLGLHVEVSDTGFVRSLAFGTVLQQSIAPGEKVKPGRLVYITINSD”, the “soluble fraction (log2)” value falls from 0.0799 to -1.96.

“HMNTVAGAISDLSFKVRGSEDIEKLNRLKALSIQAKLDVQGQEEAERLISELEAKYGSLGMTVDKVSGKIA” and “HMNTYEIIGGDNRARGPVTGEELSQWIREGRASGHTMARVSDGEHWQPLGSFPEFVGPLQGLPW” are within 0.2 log units of each other in “soluble fraction (log2)” value: 0.158 for the first, 0.127 for the second.

“HMNTYVLPDALKSQLSVEDTGMLTKQLQALPETLAEGVLDSLSQMLSKNTLQNPVGWMLAVMKRAREGNFN” and “HMNVAVSEADAKAAALERVSGATEADIRMELELDDGYYVYEGDIIYQQKEYEFEIDAQTGKFLKWSEER” are within 0.2 log units of each other in “soluble fraction (log2)” value: -0.00363 for the first, -0.14 for the second.

Compared with “HMNVDLLEARIPIQSHGMRLDQVVAELFPDYSRNRLAAWIKEGRLTVDGKTMKPRDRALASAHVVLEVV”, “HMNVGKYILTLAAKEGYSQSDVARRTGISRQMLSYIIAGERKLTLPQALKIESLLSLKTGTLILMQDED” is lower in “soluble fraction (log2)” value: -0.18 for the first, -3.41 for the second.

“HMNVNEIREMYPEGTQIVLTEMRGENQMPYGLKGTVKFVDDAGQIHMKWENGSSLALNINEDTFEKVE” and “HMNVPATAEAYEALLADAESVGKSLWGHEAKRFAAEQALLSAGLREVIQVDPDKARELALRLRGLLDEYRG” are within 0.2 log units of each other in “soluble fraction (log2)” value: 0.147 for the first, 0.13 for the second.

Compared with “HMNVQGFVFDLAEPLDKVPSIEGFPLKLEDPLTLVAAVNKDRSINALFAELSKLNIKIKSMRNE”, “HMNVVSIEHIRTHLQNHLSLIGRSIEESFNEAKVIAFVASLFLTHRGYASVSQDMGTNGEIYLQDLW” is lower in “soluble fraction (log2)” value: 0.15 for the first, -0.381 for the second.

Compared with “HMNVWGLSERELEATRLLIEGFSSKEASARMGISPSTVRSLWGRARAKMGVDSIEDARELVA”, “HMNYAVTAARRESILNAALEIFGKSGYNGSSVKQVALAVGMTEAGVLHHFGTKSNLLIEVLRV” is higher in “soluble fraction (log2)” value: -0.236 for the first, at least 0.62 for the second.

First: HMNYLDVNIPVTSAVWMGKQLPEMGTLIYLTPDKDVEGMLFIKQATKDKPDGEYIEAKVLGYKEGRVLFDF
Second: HMPAEEVPLYKAVVVTTPPNRLRVRFSPAGDFKRWLQSGEEVDVYQELGDWRRIEPNGWSSAEWLQRVG
The “soluble fraction (log2)” value of the first is lower: -0.547 for the first, -0.157 for the second.

First: HMPAGWIPARIRLADYPQLRSLAWHVQGIDTLTPTEALDIYERNARHLDAQAMSAQEQDLLASLRLALS
Second: HMPALPGNELLRNLMLEHGLKQVDLAEIGSQGVVSEILSGKRRINRRHADLLARRFSLPAELFSR
The “soluble fraction (log2)” value of the first is lower: -0.839 for the first, -0.133 for the second.

First: HMPANLTPDYFKAEQWYRSASTNEEKMLALEQMLAVMPKHKGTEHLQADLKRKLSQLKDASAQ
Second: HMPAPAPDIPYHSRVSVRRADGFYEGTWTNTAPILDYTGRWMVNVSLGGKRVFVPVEEVVVH
The “soluble fraction (log2)” value of the first is higher: 0.148 for the first, -0.862 for the second.

“HMPAPKPSGALSLKDEPLYAASDSKRRSGTVSGTYYRWDGENVNGRMRITNKQENIGKAGQVTGWITAH” and “HMPASTSIPYSDFISRVESGDVQEAKIGESAITGTYKDGSQFKTVKPPTLDTNLMPTLIQNKVNVVGVEP” are within 0.2 log units of each other in “soluble fraction (log2)” value: 0.087 for the first, 0.18 for the second.

“HMPAVGGVVKGAVVSVGRNEVRLDIGGLAIGIIRGPELDKHVDLRIGDEVEATVITLDNEFGELELSL” and “HMPAVTEQTKTNLRRAFWQLYEQKPIQKITVKQITDLAGYNRGTFYLYFKDVYDLLDDIENK” are within 0.2 log units of each other in “soluble fraction (log2)” value: -0.72 for the first, -0.704 for the second.

First: HMPAVTEQTRANLRTAFWSLYREKPTSKITVREITDRAGYNRATFYLYYRDVYDLFEQIEQEIL
Second: HMPDAGQRRYLELVTALAGARSLTIDDLERRAIRFAEWGNGYSGRTARQFIDTLLQDRGVAEEL
The “soluble fraction (log2)” value of the first is lower: -2.36 for the first, -0.405 for the second.

First: HMPDAIPLETIIKNVNVLAGFLINSKTFTEDDIVMAYNNIMKIKGDHTDEKTLTNDVYTLLTEMN
Second: HMPDIFDRGTAHITDAASGVAITFTRTFRIPPEVTMTHKGGTVVAIARLVGSITTGGFTAVLENT
The “soluble fraction (log2)” value of the first is lower: -0.469 for the first, -0.264 for the second.

In the case of “HMPDLQDTLYRLVPEDGSAIGNQSLREKFLSTAKDASDADFEAARDGLVEQGKLTKGKGRGGSVRRAEP”, the “soluble fraction (log2)” value is reported as 0.389.
